One substance from article PMC3390394 can be followed below.

For test [1], the target named is Arabidopsis thaliana dihydrodipicolinate synthase 2 (At-DHDPS2) (Arabidopsis thaliana) (UniProt Q9FVC8). Briefly: AUC; sedimentation velocity, c(s) analysis (SEDFIT); 20 mM Tris-HCl, 150 mM NaCl, pH 8.0, 20°C; At-DHDPS2 at 0.75 mg/mL, 50,000 rpm; At-DHDPR2 at 0.1-1.6 mg/mL, 40,000 rpm.
For test [2] the target is unchanged. The test can be described thus: SEC-MALS; Malvern P3000 column with Viscotek TDA (refractive index, low angle and right angle light scattering); 100 µL of 1.0 mg/mL; 20 mM Tris-HCl, 150 mM NaCl, pH 8.0; 28°C. On the technique in general: SEC sorts molecules by how far they enter the pores of the column.

Chain of Arabidopsis thaliana dihydrodipicolinate synthase 2 (At-DHDPS2) (Q9FVC8 40-365): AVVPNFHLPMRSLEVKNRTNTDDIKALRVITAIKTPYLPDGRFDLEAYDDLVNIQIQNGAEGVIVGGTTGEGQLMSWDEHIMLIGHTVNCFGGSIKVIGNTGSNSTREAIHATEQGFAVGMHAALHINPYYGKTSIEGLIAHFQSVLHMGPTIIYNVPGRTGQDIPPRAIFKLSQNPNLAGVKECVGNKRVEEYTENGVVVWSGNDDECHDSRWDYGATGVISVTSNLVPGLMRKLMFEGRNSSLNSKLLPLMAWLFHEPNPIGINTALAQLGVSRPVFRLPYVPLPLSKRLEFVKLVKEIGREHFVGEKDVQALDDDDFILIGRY

A word on the stoichiometry N: it is the number of molecules, sites or subunits per partner or assembly. On to “Arabidopsis thaliana dihydrodipicolinate synthase 2 (At-DHDPS2) (from UniProt Q9FVC8 40-365) (enzyme)”, for which the stoichiometry N in test [1] and in test [2] was 4 each time.
